Patent US20080248026

System: T1, purified murine β-catenin protein
T1 sequence: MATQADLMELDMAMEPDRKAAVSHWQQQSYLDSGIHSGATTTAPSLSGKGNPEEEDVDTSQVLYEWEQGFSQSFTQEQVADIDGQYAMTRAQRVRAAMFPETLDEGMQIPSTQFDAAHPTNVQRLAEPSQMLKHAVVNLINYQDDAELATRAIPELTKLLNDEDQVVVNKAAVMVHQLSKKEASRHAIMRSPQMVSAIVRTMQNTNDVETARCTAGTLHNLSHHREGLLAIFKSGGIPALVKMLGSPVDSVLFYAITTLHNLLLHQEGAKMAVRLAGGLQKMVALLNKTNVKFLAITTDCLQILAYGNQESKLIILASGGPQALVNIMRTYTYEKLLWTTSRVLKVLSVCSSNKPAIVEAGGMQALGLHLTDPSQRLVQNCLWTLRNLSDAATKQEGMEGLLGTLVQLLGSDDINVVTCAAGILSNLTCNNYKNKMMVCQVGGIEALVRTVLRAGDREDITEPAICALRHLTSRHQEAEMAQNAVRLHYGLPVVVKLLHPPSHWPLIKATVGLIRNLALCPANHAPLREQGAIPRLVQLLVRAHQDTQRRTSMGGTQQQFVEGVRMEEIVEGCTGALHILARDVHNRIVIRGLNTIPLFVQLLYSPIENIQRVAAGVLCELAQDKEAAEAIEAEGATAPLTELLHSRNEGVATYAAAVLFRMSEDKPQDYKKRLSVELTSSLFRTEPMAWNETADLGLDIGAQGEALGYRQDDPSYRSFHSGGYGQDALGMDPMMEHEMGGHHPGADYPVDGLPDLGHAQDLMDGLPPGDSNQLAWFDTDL

Substance: Akt (Cell Signaling)
- in vitro phosphorylation; collision induced dissociation spectrum of the peptide spanning Ser^552 (loss of the 98 Da H3PO4 group): indicating that this peptide (shown in FIG. 5C) is phosphorylated by Akt
